From patent US20040087537A1

What was measured:
[1] = biological target: low affinity human Nerve Growth Factor receptor truncated in its intracytoplasmic domain (delta-LNGFR), product of the HN vector (human); assay: FACS on CEMss HN cells, control labeling
[2] = biological target: delta-LNGFR/F12Nef fusion protein, product of the NF vector (human LNGFR (NH2 moiety) fused to HIV-1 F12Nef (COOH moiety)); assay: FACS on CEMss NF cells, control labeling

Sequence of low affinity human Nerve Growth Factor receptor truncated in its intracytoplasmic domain (delta-LNGFR), product of the HN vector (human) (chain, as listed by the source mutant limits assumed): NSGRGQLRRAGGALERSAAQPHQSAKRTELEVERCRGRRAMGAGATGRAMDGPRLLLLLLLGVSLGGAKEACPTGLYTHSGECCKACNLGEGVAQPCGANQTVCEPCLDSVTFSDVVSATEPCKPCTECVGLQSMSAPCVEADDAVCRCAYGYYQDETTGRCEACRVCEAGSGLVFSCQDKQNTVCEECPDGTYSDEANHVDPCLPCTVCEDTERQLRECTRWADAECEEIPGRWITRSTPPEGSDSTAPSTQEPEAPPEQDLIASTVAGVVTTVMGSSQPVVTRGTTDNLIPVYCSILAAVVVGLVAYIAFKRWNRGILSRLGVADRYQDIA

species and isotype matched IgG (antibody)
MFI [1]: 1 to 1.5 | MFI [2]: 1 to 1.5
